# Paper PMC10790703 (mBio, 2023)
# T1: ubiquitin E3 ligase TRIM59 (human (endogenous in 293T), UniProt Q8IWR1 1-403)
# T1 construct: TRIM59, ubiquitin E3 ligase primarily located in the ER, in 293T cells
# T1 sequence (looked up): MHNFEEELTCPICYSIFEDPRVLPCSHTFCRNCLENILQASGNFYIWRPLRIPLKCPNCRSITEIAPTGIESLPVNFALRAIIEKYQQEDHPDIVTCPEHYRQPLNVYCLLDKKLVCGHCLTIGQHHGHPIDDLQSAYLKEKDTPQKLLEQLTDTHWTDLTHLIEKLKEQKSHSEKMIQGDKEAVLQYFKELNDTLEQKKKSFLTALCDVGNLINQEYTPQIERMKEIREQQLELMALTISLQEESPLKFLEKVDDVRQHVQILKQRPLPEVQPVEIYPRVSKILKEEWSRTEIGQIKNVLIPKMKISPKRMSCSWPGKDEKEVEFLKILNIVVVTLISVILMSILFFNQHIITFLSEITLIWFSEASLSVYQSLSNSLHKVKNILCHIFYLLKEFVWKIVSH
# B1: SARS-CoV-2 ORF3a dG188 mutant, HA-tagged (natural protein)
# chain: MDLFMRIFTIGTVTLKQGEIKDATPSDFVRATATIPIQASLPFGWLIVGVALLAVFQSASKIITLKKRWQLALSKGVHFVCNLLLLFVTVYSHLLLVAAGLEAPFLYLYALVYFLQSINFVRIIMRLWLCWKCRSKNPLLYDANYFLCWHTNCYDYCIPYNSVTSSIVITSGDGTTSPISEHDYQIGYTEKWESGVKDCVVLHSYFTSDYYQLYSTQLSTDTGVEHVTFFIYNKIVDEPEEHVQIHTIDGSSGVVNPVMEPIYDEPTTTTSVPL
# notes: also called G188 deletion mutant; E-ORF3a (represented by the dG188 mutant); not shown: HA, C-terminal, kept
# Target: T1, ubiquitin E3 ligase TRIM59
# Experiment: co-IP
# Details: partners not purified
binder,measurement,value
B1,fold of pulled-down ORF3a against WT ORF3a (densitometry),~1.5 fold
